Test results as given in publication PMC3200309 (Cell, 2011).

Tests used:
[1] = molecular target: PTP1B-CASA mutant (C215A, S216A), PTP1B (1-321) (Homo sapiens, UniProt P18031, Cys215 to Ala | Ser216 to Ala); experiment: SPR
[2] = molecular target: scFv45 (conformation-sensor single chain variable fragment, purified from E. coli) (chicken); experiment: SPR

Kd [1]	Kd [2]	koff [2]	Binder
52 nM			scFv45 (conformation-sensor single chain variable fragment, purified from E. coli) (scFv, V domains shown) VH: TVTLDESGGGLQAPGGALSLVCKASGFTFSSYDMGWIRQAPGKGLEYVAGITDNGRYASYGSAVDGRATISRDNGQSSVRLQLNNLRAEDTGTYYCARDDGSGWTGNSIDAWGHGTEVIVSS VL: LTQPSSVSANPGGTVKITCSGSSSAYGYGWYQQKSPGSAPVTVIYNNNKRPSNIPSRFSGSKSGSTGTLTITGVQAEDEAVYFCGSEDSSTDAIFGAGTTLTVL
	46 nM	0.0023 s⁻¹	PTP1B-OX, PTP1B (1-321) reversibly oxidized with H2O2 (domain or fragment, active site Cys215 reversibly oxidized (cyclic sulfenyl-amide: S of Cys215 linked to the main-chain N of Ser216)) MEMEKEFEQIDKSGSWAAIYQDIRHEASDFPCRVAKLPKNKNRNRYRDVSPFDHSRIKLHQEDNDYINASLIKMEEAQRSYILTQGPLPNTCGHFWEMVWEQKSRGVVMLNRVMEKGSLKCAQYWPQKEEKEMIFEDTNLKLTLISEDIKSYYTVRQLELENLTTQETREILHFHYTTWPDFGVPESPASFLNFLFKVRESGSLSPEHGPVVVHCSAGIGRSGTFCLADTCLLLMDKRKDPSSVDIKKVLLEMRKFRMGLIQTADQLRFSYLAVIEGAKFIMGDSSVQDQWKELSHEDLEPPPEHIPPPPRPPKRILEPHN
